The values that follow come from the RNAGym collection of RNA variant scans (doi:10.7554/elife.80360).

To fix the notation:
B1: CPEB3 Ribozyme (parent)
chain: GGGGGCCACAGCAGAAGCGUUCACGUCGCGGCCCCUGUCAGAUUCUGGUGAAUCUGCGAAUUCUGCUGU

Variants of B1 are the subject of this data set. Kind of data set: self-cleavage, relative activity (ratio to wild type); higher = more cleavage; co-transcriptional.
For the variant U53G U69A, the self-cleavage was 0.982. Turning to U53C G65U, the self-cleavage turned out to be 0.429. G58U A59G: the self-cleavage was determined as 1.02. For G58A C63A the value was 0.748; for G56U G65A, 0.47; for G56U G65U, 0.468.

C54A A60C: the self-cleavage was determined as 0.272.

Take A51U C57A: the self-cleavage amounted to 0.374. For the variant C57A A59C, the self-cleavage came out at 0.335. In the case of G56A U69A, the self-cleavage was found to be 1.03. Regarding A51G U55A, the self-cleavage is 0.87. In the case of C57A G58C, the self-cleavage amounted to 0.397. Consider A52G G68U, for which the self-cleavage came to 0.988. For U53G C66U, the self-cleavage stood at 0.929. The figure for U53G C66G is 0.647; for G58C U64G it is 0.893. Turning to C57G U69G, the self-cleavage was 0.473.

As to C57G U69A, the self-cleavage amounted to 0.381. The figure for G56A U61C is 0.617; for G56A U61G it is 0.676; for C54G C57U it is 0.392. Turning to A51G U61C, the self-cleavage turned out to be 0.777.

In the case of C54G C66G, the self-cleavage was determined as 0.533. The figure for C54G C66A is 0.514; for A51U A59G it is 0.993. Take G58U U69A: the self-cleavage was found to be 1.02.

Consider G58U U69C, for which the self-cleavage amounted to 1.06. For C54U C63U the value was 1.02; for C54G U61A, 0.569. As for C54G U61G, the self-cleavage stood at 0.436. The figure for G56C G58U is 0.917; for G56C G58C it is 0.907; for G56C G58A it is 0.76. For U55G A60U the value was 0.291; for U55G A60G, 0.552; for G58A G68C, 0.978. For G58A G68U, the self-cleavage worked out at 0.962. Turning to U55C G56C, the self-cleavage is 0.583. On to U55C G56A, for which the self-cleavage was 0.996. For G58A G65C the value was 0.619. G58A G65U: the self-cleavage was determined as 0.743. The figure for U55C A59C is 0.464; for U55C A59G it is 0.967. C54G U67A: the self-cleavage worked out at 0.938.

For U53G U67C, the self-cleavage was 0.901.

Regarding U53G U67A, the self-cleavage stood at 0.779. The figure for U53G U67G is 0.894; for G56U U64G it is 0.753. In the case of G56U U64A, the self-cleavage stood at 0.612. The figure for G56A G58C is 0.971. The figure for G56A G58A is 0.905; for C57U U69C it is 0.554; for G58C U61C it is 0.844. Take C54U U64C: the self-cleavage came to 0.92. In the case of C54U U64A, the self-cleavage worked out at 0.905.

Consider C54U U64G, for which the self-cleavage was determined as 0.924.

Turning to G56U U61C, the self-cleavage came to 0.383. The figure for G56U U61G is 0.548; for A52G G58C it is 0.972. For C57A A60G the value was 0.347; for G58C G65C, 0.703; for U55C U64A, 0.567. Take A52U C66G: the self-cleavage was found to be 0.695. For U53C U67G the value was 0.822. Take U53C U67A: the self-cleavage was determined as 0.793. The figure for U53C U67C is 0.872; for G56C A60C it is 0.295. For the variant U53A C63A, the self-cleavage is 0.673. The figure for C54G U64A is 0.63; for C54G U64C it is 0.542; for A52C C57A it is 0.414. The figure for A52C C57U is 0.398; for A51U U53A it is 0.918. The figure for U53G C57G is 0.403; for U55G C63U it is 0.626. With G56U U67A, the self-cleavage was found to be 0.943. The figure for G56U U67C is 0.894; for G56U U67G it is 0.945.

Consider U55G A59U, for which the self-cleavage came to 0.394. The figure for G58U C66G is 0.974; for U55C G68A it is 0.961. For A51G G58A the value was 0.949.

A52C U69A: the self-cleavage came to 0.977.

G56C C63G: the self-cleavage came to 0.456.

G56C C63U: the self-cleavage amounted to 0.709. Turning to G56C C63A, the self-cleavage came out at 0.47. The figure for G58C U67G is 1.01; for U55A U61C it is 0.445. For C54U U55G the value was 0.806; for G58U G65A, 0.961. Regarding G58U G65U, the self-cleavage is 0.948. For C54G U69C, the self-cleavage was 1.04. Consider C57G U62C, for which the self-cleavage amounted to 0.288. For C57G U62G the value was 0.448; for A52C A60C, 0.398.

A52C A60G: the self-cleavage is 0.839. The figure for G58A U67G is 0.988; for C57G it is 0.354. The figure for C57A is 0.346; for C57U it is 0.375; for U55C it is 0.937.

U55G: the self-cleavage came out at 0.881. The figure for U55A is 0.96. Take A52U G58A: the self-cleavage was found to be 0.939.

Regarding C57U U62G, the self-cleavage worked out at 0.327. The figure for C54G G58A is 0.849; for U53C U61A it is 0.577; for U53C U61C it is 0.342.

With G56U C57U, the self-cleavage stood at 0.322. Turning to G56U C57A, the self-cleavage came out at 0.291.

Turning to U55G U69C, the self-cleavage amounted to 0.962. Regarding U55G G58U, the self-cleavage was found to be 0.946. As to U53A U61G, the self-cleavage was found to be 0.581.

C54U A59C: the self-cleavage turned out to be 0.678.

Regarding C54G C63A, the self-cleavage is 0.543.

C57G C66G: the self-cleavage came to 0.39.

On to C57G C66U, for which the self-cleavage worked out at 0.333. The figure for A52U G68A is 0.975; for A52C A59U it is 0.68. Regarding G58U A60C, the self-cleavage was found to be 0.372. In the case of A52G U55C, the self-cleavage was found to be 0.722. With C54G G65C, the self-cleavage is 0.503. With U53G G58A, the self-cleavage amounted to 0.818.

As to C57U G68C, the self-cleavage was determined as 0.365.

For G56U A59C, the self-cleavage was found to be 0.514. Turning to G56U A59U, the self-cleavage worked out at 0.672. Consider C54A U69G, for which the self-cleavage was determined as 1.01. Take A51U C54A: the self-cleavage turned out to be 0.633. For U55A G68C the value was 1.01. For the variant U55G U67G, the self-cleavage was 0.826. Turning to C54U U61C, the self-cleavage stood at 0.861. Turning to C54A U67G, the self-cleavage is 0.887. For C54A U67C the value was 0.887; for C54A U64G, 0.471.

Regarding A51U U55G, the self-cleavage came to 0.662.

With U55C C57U, the self-cleavage was 0.295. U55C C57G: the self-cleavage was found to be 0.322.

With G58C U62G, the self-cleavage was 0.965. The figure for G56C G68C is 0.907. The figure for C54A G58A is 0.883. The figure for A51U G56A is 0.889. As to A51U G56U, the self-cleavage was 0.879. As for A51U G56C, the self-cleavage turned out to be 0.486. With C57G C63G, the self-cleavage stood at 0.285. The figure for C57G C63U is 0.356; for G56U U69G it is 1.02; for C57A G65C it is 0.4. Take C57A G65U: the self-cleavage was 0.399. Take U53A C54U: the self-cleavage was 0.882. Consider U53A C54A, for which the self-cleavage is 0.907. Turning to U53G U55G, the self-cleavage worked out at 0.386. Turning to G56A A59C, the self-cleavage turned out to be 0.432. The figure for A52G C57A is 0.343; for U53C U69A it is 0.977; for A52C U53G it is 0.788.

As for U55A A60C, the self-cleavage was found to be 0.343.

In the case of C54G G68U, the self-cleavage was determined as 0.993.

Take A59C A60U: the self-cleavage is 0.378. The figure for C57A U64G is 0.384; for U55G U61A it is 0.497; for C57A U62A it is 0.32. For U55C G65U the value was 0.495; for U55C G65A, 0.588; for U55A G58A, 0.927. For A52C G58C the value was 0.986; for A52C G58A, 0.887.

As to A52U C54U, the self-cleavage came out at 0.976.
